Assay results taken from patent US20190352365.

Columns and labels:
[1] = target: T1, CBD-intein-S-TEV site-liraglutide fusion protein
T1 chain: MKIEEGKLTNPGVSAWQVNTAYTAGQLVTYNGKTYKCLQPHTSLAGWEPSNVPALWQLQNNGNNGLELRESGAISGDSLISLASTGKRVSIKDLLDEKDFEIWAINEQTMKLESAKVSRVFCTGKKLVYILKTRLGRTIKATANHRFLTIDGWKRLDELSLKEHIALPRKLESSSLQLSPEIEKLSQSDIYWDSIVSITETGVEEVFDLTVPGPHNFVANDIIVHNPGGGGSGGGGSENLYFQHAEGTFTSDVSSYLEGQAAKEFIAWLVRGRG

[2] = target: T2, CBD-intein-Spacer(S)-TEV site-teriparatide fusion protein
T2 chain: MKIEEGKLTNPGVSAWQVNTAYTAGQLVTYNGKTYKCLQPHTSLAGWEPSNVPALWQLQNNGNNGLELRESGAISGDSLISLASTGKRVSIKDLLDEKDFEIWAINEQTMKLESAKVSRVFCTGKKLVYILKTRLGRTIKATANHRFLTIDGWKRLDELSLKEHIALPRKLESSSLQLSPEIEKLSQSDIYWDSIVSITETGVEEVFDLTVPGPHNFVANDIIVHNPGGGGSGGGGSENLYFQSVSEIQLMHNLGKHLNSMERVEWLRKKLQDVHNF

B1: TEV protease (protein)
chain: GESLFKGPRDYNPISSTICHLTNESDGHTTSLYGIGFGPFIITNKHLFRRNNGTLLVQSLHGVFKVKNTTTLQQHLIDGRDMIIIRMPKDFPPFPQKLKFREPQREERICLVTTNFQTKSMSSMVSDTSCTFPSSDGIFWKHWIQTKDGQCGSPLVSTRDGFIVGIHSASNFTNTNNYFTSVPKNFMELLTNQEAQQWVSGWRLNADSVLWGGHKVFMSKPEEPFQPVKEATQLMNELVYSQ
TEV protease-mediated cleavage of the fusion protein (SDS-PAGE, pH 8.0) [1]: cleavage by the TEV protease resulted in the release of liraglutide
TEV protease-mediated cleavage of the fusion protein (SDS-PAGE and western blot, pH 8.0 and pH 7.0) [2]: cleavage by the TEV protease resulted in the release of teriparitide
